The values that follow come from PMC6194859.

The target of this data set is T1, PhoB~P (phosphorylated PhoB) (Escherichia coli) (UniProt P0AFJ5).
T1 sequence: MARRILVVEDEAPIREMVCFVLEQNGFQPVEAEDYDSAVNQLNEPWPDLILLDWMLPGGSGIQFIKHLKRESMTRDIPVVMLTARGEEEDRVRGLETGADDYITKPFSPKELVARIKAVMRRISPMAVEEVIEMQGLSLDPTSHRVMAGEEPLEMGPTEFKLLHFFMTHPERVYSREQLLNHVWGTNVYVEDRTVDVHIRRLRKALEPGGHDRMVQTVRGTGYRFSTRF
Nature of the data set: EMSA. Conditions: phosphoramidate-phosphorylated PhoB, 50 mM Tris pH 7.6, 200 mM NaCl, 0.1 mg/ml BSA, 2 mM MgCl2, 1 mM DTT, 5% glycerol, ~0.1 uM DNA (mM in the source), 15 uM nonfluorescent competitor dsDNA, 30 min, 12% ….

In general, Kd refers to the free concentration of one partner at which half of the binding sites on the other are occupied at equilibrium, for simple one-to-one binding. Read a low Kd as a tighter complex. With “CTGCAGGAAGAAGGAAAACGCTGGTTTGACAATCTTGCCGCTAACGGAAAAATCGAAATGGCCTGGCAGGAAACTTTCTGGGCGCATGGCTTTGGCAAAGTCACCGATAAATTTGGCGTACCGTGGATGATTAATGTCGTCAAACAACAACCAACGCAATAACCCGCCGGGAGGCCCGCCCTCCCGCACTGTCATCGAATTCCCGTTAACTCTTCATCTGTTAGTCACTTTTAATTAACCAAATCGTCACAATAATCCGCCACGATGGAGCCACTTTTTTAGGGAGGCTGCATCATGCAAACGATTTGATCTAGAAATAATTTTGTTTAACTTTAAGAAGGAGATATACAAATGGTGAGC (double strand) [phnC promoter]”, under “Hill fit”, the Kd was determined as 0.0017 mM.
As to “GCCACGGAAATCAATAACCTGAAGATATGTGCGACGAGCTTTTCATAAATCTGTCATAAATCTGACGCATAATGACGTCGCATTAATGATCGCAACCTATTTATTACAACAGGGCTGATCTAGAAATAATTTTGTTTAACTTTAAGAAGGAGATATACAAATGGTGAGC (double strand) [phoB promoter]”, where the note is “two-site per DNA binding model”, the Kd was determined as 0.00025 mM.
